Measured values as given in patent US20220204601A1 (ADEL, published 2022).
Ends that are not written are not given here.

T1: K280-ac protein fragment (human)
T1 construct: also called mAC
T1 peptide: VQIINK(Ac)KLDLSN


Legend:
K280-ac protein fragment [1] = target: T1, K280-ac protein fragment; experiment: ELISA on K280-ac coated at 250 ng/well, HRP anti-human IgG
Experimental: (§1) In addition, binding of the K280-ac protein fragment prepared in Preparation Example 1 with the ADEL-Y01h (v01 to v12) antibodies prepared in Preparation Example 2 was measured by ELISA.
(§2) First, plates were treated with the K280-ac protein fragment at 250 ng/well and reaction was allowed to proceed at 4° C. overnight. The next day, washing with a washing buffer was performed three times, and then treatment with a primary antibody was performed with 8 concentrations (2 μg, 1 μg, 0.5 μg, 0.25 μg, 0.12 μg, 0.06 μg, 0.03 μg, 0.01 μg). As a secondary antibody, HRP-labeled anti-human IgG antibody was used.

Tau (Acetylation -) [2] = target: T2, Tau (Acetylation -); experiment: western blot
T2 construct: also called non-Ac tau protein; non-acetylated wild type tau protein
Experimental: (§3) In order to identify specific binding of the ADEL-Y01m antibody prepared in Preparation Example 2 to acetylated tau protein, the wild-type tau protein and the tau protein (Tau K280A) in which the 280th amino acid lysine is replaced with alanine were acetylated in vitro. Here, acetylation of the wild-type Tau protein and the Tau K280A protein was performed in the same manner as in the preparation method of the acetylated K18 protein fragment in Preparation Example 1. Then, an antigen-antibody specific binding reaction of the ADEL-Y01m antibody was checked through western blotting.
(§4) First, the concentrations of the wild-type Tau protein and the Tau K280A protein were measured through Bradford Assay. Each of the proteins was mixed with 4× sample buffer (60 mM Tris-HCl [pH 6.8], 2% w/v SDS, 25% v/v glycerol, 14.4 mM v/v β-mercaptoethanol, and bromophenol blue). Thereafter, each protein was electrophoresed on an SDS-PAGE gel. Then, the electrophoresed gel was separated and transferred onto a PVDF membrane (BioRad, California, USA). Treatment with a blocking buffer (0.1% v/v Tween-20 [PBST], 3% w/v BSA, or 5% v/v skim milk in PBS buffer) was performed and reaction was allowed to proceed for 1 hour. Then, treatment with an anti-acetyl-lysine antibody (anti-acetyl-lysine, Cell Signaling, 9441) or ADEL-Y01m antibody as a primary antibody was performed and reaction was allowed to proceed at 4° C. overnight. The next day, the PVDF membrane was washed three times with a washing buffer (0.1% v/v Tween-20 [PBST] in PBS buffer), and then treated with HRP-labeled anti-mouse IgG antibody (Bioxcell, BE0083). The PVDF membrane was treated with a chemiluminescent reagent (Thermo Fisher Scientific). Then, measurement and analysis were performed using x-ray film and ImageJ software (NIH, Bethesda, Md.).

Tau K280A protein = target: T3, Tau K280A protein (human, UniProt P10636 2-758); experiment: western blot
T3 construct: Tau protein with lysine 280 replaced by alanine, not acetylated
Experimental: as §3, §4

[3] = target: T4, acetylated Tau K280A protein (human, UniProt P10636 2-758, acetylated in vitro with P300 enzyme and acetyl CoA; sites not stated); experiment: western blot
T4 construct: Tau K280A acetylated in the same manner as the acetylated K18 fragment; also called Tau K280A (acetylated)
Experimental: as §3, §4

K280-ac protein fragment [4] = target: T1, K280-ac protein fragment; experiment: Octet K2 system, antibody fixed on AR2G biosensor, antigen in solution
Experimental: (§5) An affinity between the K280-ac protein fragment prepared in Preparation Example 1 and the ADEL-Y01m antibody prepared in Preparation Example 2 was measured through the Octet® K2 System (Fortebio).
(§6) The ADEL-Y01m antibody was fixed on AR2G biosensor according to the manufacturer's manual. The surface of the biosensor was hydrated with water for 10 minutes, and then activated using a mixture of 20 mM 1-ethyl-3-[3-dimethylaminopropyl] carbodiimide hydrochloride (EDC) and 10 mM N-hydroxysulfosuccinimide (s-NHS). The ADEL-Y01m antibody was fixed on the activated biosensor using 10 mM sodium acetate buffer (pH 5.0) and quenched with 1M ethanol amine (pH 8.0) for 5 minutes. The biosensor on which the ADEL-Y01m antibody is fixed was immersed in 1×PBS buffer (pH 7.4) for 60 seconds, to establish a baseline. Then, the biosensor was immersed for 60 seconds in wells containing different concentrations of the K280-ac protein fragment (antigen) or BSA-bound peptide. Thereafter, the biosensor was immersed again in 1×PBS buffer (pH 7.4) for 10 minutes so that dissociation occurs. The experimental data were evaluated by Octet Data Analysis (SW version: 9.0.0.10).

K280-ac protein fragment [5] = target: T1, K280-ac protein fragment; experiment: BLI, Octet K2; antibody fixed on AR2G biosensor, K280-ac fragment in solution
Experimental: as §5, §6

Tau (Acetylation -) [6] = target: T2, Tau (Acetylation -); experiment: plate assay as drawn: capture Ab 1ug/well, antigen titrated
K280-ac protein fragment [7] = target: T1, K280-ac protein fragment; experiment: ELISA, K280-ac coated at 250 ng/well
Experimental: as §1, §2

T2 sequence (tau protein, as listed by the source): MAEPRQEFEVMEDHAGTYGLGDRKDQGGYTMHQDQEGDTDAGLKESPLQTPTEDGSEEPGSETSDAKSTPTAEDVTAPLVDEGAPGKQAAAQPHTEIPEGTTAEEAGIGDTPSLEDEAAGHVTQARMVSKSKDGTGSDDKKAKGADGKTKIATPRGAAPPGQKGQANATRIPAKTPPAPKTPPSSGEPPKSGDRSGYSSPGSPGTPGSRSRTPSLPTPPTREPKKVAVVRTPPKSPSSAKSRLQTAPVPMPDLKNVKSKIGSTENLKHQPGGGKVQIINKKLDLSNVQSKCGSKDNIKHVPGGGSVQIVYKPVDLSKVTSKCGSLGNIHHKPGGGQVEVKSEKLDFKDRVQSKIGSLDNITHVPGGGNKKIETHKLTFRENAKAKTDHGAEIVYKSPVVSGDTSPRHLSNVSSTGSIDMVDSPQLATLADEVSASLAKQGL
T3 sequence (P10636 other isoform, or with tags, fused parts or gaps K280A K280A limits assumed): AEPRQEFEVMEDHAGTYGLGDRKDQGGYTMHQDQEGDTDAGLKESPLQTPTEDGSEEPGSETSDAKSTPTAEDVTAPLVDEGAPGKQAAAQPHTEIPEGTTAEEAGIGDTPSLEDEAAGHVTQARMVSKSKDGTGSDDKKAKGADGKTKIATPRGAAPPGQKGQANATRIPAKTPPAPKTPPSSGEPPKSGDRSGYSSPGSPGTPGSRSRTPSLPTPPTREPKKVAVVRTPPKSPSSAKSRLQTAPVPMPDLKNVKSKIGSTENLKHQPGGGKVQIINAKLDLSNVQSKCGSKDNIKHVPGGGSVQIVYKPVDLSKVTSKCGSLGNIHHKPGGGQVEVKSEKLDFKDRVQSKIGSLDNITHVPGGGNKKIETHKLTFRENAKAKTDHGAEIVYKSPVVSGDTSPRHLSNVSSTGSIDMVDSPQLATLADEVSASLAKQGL
T4 sequence (P10636 other isoform, or with tags, fused parts or gaps K280A K280A limits assumed): as above

Binder | Absorbance at 450nm at 0.01ug/well (K280-ac protein fragment [1]) | Absorbance at 450nm at 0.03ug/well (K280-ac protein fragment [1]) | Absorbance at 450nm at 0.06ug/well (K280-ac protein fragment [1]) | Absorbance at 450nm at 0.12ug/well (K280-ac protein fragment [1]) | Absorbance at 450nm at 0.25ug/well (K280-ac protein fragment [1]) | Absorbance at 450nm at 0.5ug/well (K280-ac protein fragment [1]) | Absorbance at 450nm at 1ug/well (K280-ac protein fragment [1]) | Absorbance at 450nm at 2ug/well (K280-ac protein fragment [1]) | binding result (Tau (Acetylation -) [2]) | binding result (Tau K280A protein) | binding result [3] | koff (K280-ac protein fragment [4]) [s⁻¹] | kon (K280-ac protein fragment [4]) [M⁻¹ s⁻¹] | Kd (K280-ac protein fragment [5]) [nM] | binding result (K280-ac protein fragment [7]) | binding result (K280-ac protein fragment [1]) | binding result (Tau (Acetylation -) [6])
ADEL-Y01h v09 antibody (antibody, V domains shown, Humanized antibody; It was detected with anti-human IgG; also called Y01h01v09) VH: EVTLKESGPTLVKPTQTLTLTCTVSGDSITSGYWNWIRQPPGKALEYLAYIRYSGRTYYNPSLKSRLTITRDTSKNQVVLTMTNMDPVDTATYYCASVYFTYWGQGTLVTVSS VL: EVVLTQSPGTLSLSPGERATLSCKSSQSLLDSDGKTYLNWYQQKPGQSPKRLISLVSKLDSGIPDRFSGSGSGTDFTLTISRLEPEDFAVYYCWQGSHFPYTFGQGTKLEIK | 0.251 | 0.542 | 0.75 | 1.22 | 1.32 | 1.45 | 1.61 | 1.69 |  |  |  |  |  |  |  |  | 
ADEL-Y01h v05 antibody (antibody, V domains shown, Humanized antibody; It was detected with anti-human IgG; also called Y01h01v05) VH: EVQLQQSGPGLVKPSQTLSLTCAVSGDSITSGYWNWIRQSPSRGLEWLGYIRYSGRTYYNPSLKSRITINRDTSKNQFSLQLNSVTPEDTAVYYCASVYFTYWGQGTLVTVSS VL: DVVMTQSPDSLAVSLGERATINCKSSQSLLDSDGKTYLNWYQQKPGQSPKRLISLVSKLDSGVPDRFSGSGSGTDFTLTISSLQAEDVAVYYCWQGSHFPYTFGQGTKLEIK | 0.131 | 0.224 | 0.431 | 0.908 | 1.3 | 1.7 | 1.85 | 2.06 |  |  |  |  |  |  |  |  | 
ADEL-Y01h v08 antibody (antibody, V domains shown, Humanized antibody; It was detected with anti-human IgG; also called Y01h01v08) VH: EVTLKESGPTLVKPTQTLTLTCTVSGDSITSGYWNWIRQPPGKALEYLAYIRYSGRTYYNPSLKSRLTITRDTSKNQVVLTMTNMDPVDTATYYCASVYFTYWGQGTLVTVSS VL: DVVMTQSPDSLAVSLGERATINCKSSQSLLDSDGKTYLNWYQQKPGQSPKRLISLVSKLDSGVPDRFSGSGSGTDFTLTISSLQAEDVAVYYCWQGSHFPYTFGQGTKLEIK | 0.015 | 0.041 | 0.0375 | 0.0745 | 0.0855 | 0.0965 | 0.179 | 0.294 |  |  |  |  |  |  |  |  | 
ADEL-Y01h v06 antibody (antibody, V domains shown, Humanized antibody; It was detected with anti-human IgG; also called Y01h01v06) VH: EVQLQQSGPGLVKPSQTLSLTCAVSGDSITSGYWNWIRQSPSRGLEWLGYIRYSGRTYYNPSLKSRITINRDTSKNQFSLQLNSVTPEDTAVYYCASVYFTYWGQGTLVTVSS VL: EVVLTQSPGTLSLSPGERATLSCKSSQSLLDSDGKTYLNWYQQKPGQSPKRLISLVSKLDSGIPDRFSGSGSGTDFTLTISRLEPEDFAVYYCWQGSHFPYTFGQGTKLEIK | 0.0585 | 0.114 | 0.265 | 0.657 | 1.09 | 1.51 | 1.76 | 2.05 |  |  |  |  |  |  |  |  | 

Continued, in another order:

Absorbance at 450nm at 0.01ug/well (K280-ac protein fragment [1]) | Absorbance at 450nm at 0.03ug/well (K280-ac protein fragment [1]) | Absorbance at 450nm at 0.06ug/well (K280-ac protein fragment [1]) | Absorbance at 450nm at 0.12ug/well (K280-ac protein fragment [1]) | Absorbance at 450nm at 0.25ug/well (K280-ac protein fragment [1]) | Absorbance at 450nm at 0.5ug/well (K280-ac protein fragment [1]) | Absorbance at 450nm at 1ug/well (K280-ac protein fragment [1]) | Absorbance at 450nm at 2ug/well (K280-ac protein fragment [1]) | binding result (Tau (Acetylation -) [2]) | binding result (Tau K280A protein) | binding result [3] | koff (K280-ac protein fragment [4]) [s⁻¹] | kon (K280-ac protein fragment [4]) [M⁻¹ s⁻¹] | Kd (K280-ac protein fragment [5]) [nM] | binding result (K280-ac protein fragment [7]) | binding result (K280-ac protein fragment [1]) | Binder | binding result (Tau (Acetylation -) [6])
 |  |  |  |  |  |  |  | no binding | no binding | no binding | 0.000157 | 447000 | 0.257 |  |  | ADEL-Y01m antibody (antibody, V domains shown, Mouse monoclonal antibody from a hybridoma; also called Y01m01; antibody produced from the #15E5 hybridoma cell line (clone #1)) VH: EVQLEESGPSLVKPSQTLSLTCSVTGDSITSGYWNWIRKFPGNKLEYMGYIRYSGRTYYNPSLKSRISITRDTSKNQFYLQLISVTTEDTATYYCASVYFTYWGQGTLVTVSS VL: not shown | 
0.731 | 0.899 | 1.1 | 1.58 | 1.93 | 2.07 | 2.22 | 2.42 |  |  |  |  |  |  |  |  | ADEL-Y01h01_v01 antibody (antibody, V domains shown, Humanized ADEL-Y01m; It was detected with anti-human IgG; also called ADEL-Y01h v01) VH: EVQLQESGPGLVKPSQTLSLTCTVSGDSITSGYWNWIRQPPGKGLEYIGYIRYSGRTYYNPSLKSRVTISRDTSKNQFSLKLSSVTAADTAVYYCASVYFTYWGQGTLVTVSS VL: DVVMTQSPLSLPVTLGQPASISCKSSQSLLDSDGKTYLNWFQQRPGQSPKRLISLVSKLDSGVPDRFSGSGSGTDFTLKISRVEAEDVGVYYCWQGSHFPYTFGQGTKLEIK | no binding (tested: 100.00 (unit not printed))
0.568 | 0.997 | 1.23 | 1.65 | 1.64 | 1.78 | 1.9 | 1.87 |  |  |  |  |  |  |  |  | ADEL-Y01h v10 antibody (antibody, V domains shown, Humanized antibody; It was detected with anti-human IgG; also called Y01h01v10) VH: EVQLVESGGGLVQPGRSLRLSCTVSGDSITSGYWNWFRQAPGKGLEYVGYIRYSGRTYYNPSLKSRFTISRDTSKNIAYLQMNSLKTEDTAVYYCASVYFTYWGQGTLVTVSS VL: DVVMTQSPLSLPVTLGQPASISCKSSQSLLDSDGKTYLNWFQQRPGQSPKRLISLVSKLDSGVPDRFSGSGSGTDFTLKISRVEAEDVGVYYCWQGSHFPYTFGQGTKLEIK | 
 |  |  |  |  |  |  |  |  |  |  |  |  |  | binds |  | ADEL-Y01h v07 antibody (antibody, V domains shown, Humanized antibody; It was detected with anti-human IgG; also called Y01h01v07) VH: EVTLKESGPTLVKPTQTLTLTCTVSGDSITSGYWNWIRQPPGKALEYLAYIRYSGRTYYNPSLKSRLTITRDTSKNQVVLTMTNMDPVDTATYYCASVYFTYWGQGTLVTVSS VL: DVVMTQSPLSLPVTLGQPASISCKSSQSLLDSDGKTYLNWFQQRPGQSPKRLISLVSKLDSGVPDRFSGSGSGTDFTLKISRVEAEDVGVYYCWQGSHFPYTFGQGTKLEIK | 
0.0085 | 0.0225 | 0.027 | 0.0345 | 0.036 | 0.0395 | 0.0455 | 0.048 |  |  |  |  |  |  |  | no binding (tested: 2 ug/well) | v11 (antibody, V domains shown, also called Y01h01v11; ADEL-Y01h v11 antibody) VH: EVQLVESGGGLVQPGRSLRLSCTVSGDSITSGYWNWFRQAPGKGLEYVGYIRYSGRTYYNPSLKSRFTISRDTSKNIAYLQMNSLKTEDTAVYYCASVYFTYWGQGTLVTVSS VL: DVVMTQSPDSLAVSLGERATINCKSSQSLLDSDGKTYLNWYQQKPGQSPKRLISLVSKLDSGVPDRFSGSGSGTDFTLTISSLQAEDVAVYYCWQGSHFPYTFGQGTKLEIK | 
